B1: extracellular domain of BCMA (residues 1 to 51 of SEQ ID NO:6), soluble monomer, cleaved from GST-BCMA (receptor)
chain: MLQMAGQCSQNEYFDSLLHACIPCQLRCSSNTPPLTCQRYCNASVTNSVKG
notes: Expressed as a GST fusion in pGEX4T-2 and cleaved from GST with thrombin; also called monomeric BCMA; monomeric BMCA
B2: BCMA, entire, overexpressed on transfected 293 cells (receptor)
chain: MLQMAGQCSQNEYFDSLLHACIPCQLRCSSNTPPLTCQRYCNASVTNSVKGTNAILWTCLGLSLIISLAVFVLMFLLRKISSEPLKDEFKNTGSGLLGMANIDLEKSRTGDEIILPRGLEYTVEECTCEDCIKSKPKVDSDHCFPLPAMEEGATILVTTKTNDYCKSLPAALSATEIEKSISAR
notes: also called BCMA-transfected 293 cells; cells that overexpressed entire BCMA

The target in test [1] is T1, soluble TALL-1 (sTALL-1), amino acids 134-285 of human TALL-1, His6-tagged, wild type (human, UniProt Q9Y275 134-285).
T1 construct: Expressed in E. coli; Monomers form trimers, and at pH 7.4 and above a virus-like cluster of 60 monomers (20 trimers); Immobilised as 'wild type multimeric sTALL-1' in the BIAcore assay; also called wild type sTALL-1; native sTALL-1; not shown: N-terminal His6 tag from vector pET14b
Nature of the test: BIAcore SPR, sTALL-1 immobilised on CM-5 chip, monomeric BCMA (10-1000 nM) injected, Scatchard analysis of equilibrium binding. How it is done: (§1) The binding affinity of BCMA for the wild type versus mutant sTALL-1 was further determined using BIACore surface plasmon resonance. To obtain the true affinity of the receptor without the confounding effect of multivalent binding, the polyvalent TALL-1 proteins were immobilized in the instrument flow cells and the soluble monomeric BCMA was injected in the mobile phase. The KD of the interaction was calculated by Scatchard analysis of the equilibrium data (data not shown). Briefly, wild type multimeric sTALL-1 and mutant trimeric sTALL-1 were immobilized (11,000 and 3000 RU, respectively) in separate flow cells of a CM-5 BIAcore Biosenser chip using standard amine coupling reagents. Various concentrations (10-1000 nM) of monomeric BMCA were injected for one min at a flow rate of 20 μl/min in a buffer of 100 mMNaCl, 20 mM Tris-HCI pH8.0 and 0.005% P20 detergent and the binding kinetics recording. For base line calculations the same BMCA samples were injected in a control flow cell with no protein immobilized. Receptor binding kinetics were too rapid for accurate measurements of on rates and off rates, but equilibrium binding values (Rmax) were used to calculate the overall affinity of receptor binding by Scatchard analysis.
On the technique in general: SPR reads the build-up and loss of mass on a sensor chip optically.

The target of test [2] is T1, soluble TALL-1 (sTALL-1), amino acids …. Nature of the test: flow cytometry on BCMA-transfected 293 cells, anti-His6 mAb detection. How it is done: (§2) First, BCMA-transfected 293 cells were incubated with control medium, wild type sTALL-1 in the control medium, and mutant sTALL-1 in the control medium. Cell staining was performed by sequential incubation (each 40 min) with anti-His₆ mAb and RPE-conjugated goat […] IgG in staining buffer. The fluorescence was measured by using a Becton Dickinson FACScan flow cytometer (Shu et al., 2000, supra) (data not shown).

Test [3] addresses B2. The test is described as above. How it is done: as §2
Test [4] addresses B1. Nature of the test: BIAcore SPR, mutant trimeric sTALL-1 immobilised on CM-5 chip, monomeric BCMA (10-1000 nM) injected, Scatchard analysis of equilibrium binding; mutant trimeric sTALL-1 (flap removed) immobilised, monomeric BCMA injected. How it is done:
as §1

The target of test [5] is T1, soluble TALL-1 (sTALL-1), amino acids …. Briefly: co-expression, gel filtration at 100 mM to 1 M NaCl and SDS gel analysis, ratio 1:1. How it is done:
However, four lines of evidence support the present inventors' belief that the crystal structure described herein reflects the actual interactions of the complexes in solution and in vivo. First, co-expression of sTALL-1 with eBCMA or eBAFF-R generates the virus-like cluster in solution as judged by gel-filtration column and […] analysis at a ratio of 1:1 (sTALL-1: eBCMA or eBAFF-R). Different salt concentrations (from 100 mM to 1 M NaCl) produce the same elution profile, in which complexes of sTALL-1 with eBCMA or eBAFF-R elute at a void volume on superdex-200. Thus, binding between ligand and receptors is stable and insensitive to salt concentrations. Purified samples of the preformed complexes were subjected to crystallization trials. Crystals of both complexes have been obtained, however neither of them diffracted. The results further confirmed that the “flap” region of TALL-1 which is involved in clustering, is not part of the receptor binding site. […] Second, in the receptor soaked sTALL-1 crystals, all seven fully occupied receptors and one partial receptor have equivalent binding sites on sTALL-1 in the asymmetry unit, so the binding is highly specific. Third, eBCMA and eBAFF-R have a similar binding mode and occupy the same site on sTALL-1. […]
In general terms: In gel filtration, larger molecules generally elute earlier.

For orientation: Kd means the equilibrium constant for the complex coming apart. For B1, the Kd in test [1] is around 100 nM.
On to B2, for which the binding result in test [2] is listed as “binds”.

B3: mutant sTALL-1 with residues 217-224 of SEQ ID NO:2 (flap region) replaced by two glycines (ligand)
chain: AVQGPEETVTQDCLQLIADSETPTIQKGSYTFVPWLLSFKRGSALEEKENKILVKETGYFFIYGQVLYTDKTYAMGHLIQRKKGGSLVTLFRCIQNMPETLPNNSCYSAGIAKLEEGDELQLAIPRENAQISLDGDVTFFGALKLL
notes: Gel filtration gave trimer and monomer peaks and no cluster; Immobilised as 'mutant trimeric sTALL-1' in the BIAcore assay; also called truncated sTALL-1; sTALL-1 217-224; not shown: N-terminal His6 tag; the mutant was overexpressed and purified as the native sTALL-1 and detected with anti-His6 mAb; le
On to B3, for which the binding result in test [3] is “binds”. This molecule had a Kd in test [4] of around 100 nM.

B4: eBCMA, extracellular domain of BCMA (residues 1-52 of SEQ ID NO:6) (receptor)
chain: MLQMAGQCSQNEYFDSLLHACIPCQLRCSSNTPPLTCQRYCNASVTNSVKGT
notes: Residues 5-43 are ordered in the model; Made as a GST fusion and cleaved with thrombin
As for B4, the binding result in test [5] is given as “binds”.

The values are drawn from patent US20070015695A1 (NATIONAL JEWISH HEALTH, published 2007).
